From patent US20190382483A1 come the findings set out here.

For test [1], the target named is hSIRPa-His recombinant protein (Sino Biologicals, reference 11612-H08H) (human) (UniProt P78324). The test is described as follows: Biacore (SPR).
Test [2] deals with Recombinant hSIRPg-His (Sino Biologicals, reference 11828-H08H) (human) (UniProt Q9P1W8). The test is described as follows: Blitz (BLI); no antibody. The settings on record: Fc fusion.
Test [3] shares this target. The test is described as follows: Blitz (BLI); SIRPg pre-incubated with SIRP29. The settings on record: Fc fusion.
Test [4] has the same target. The test is described as follows: Blitz (BLI); SIRPg pre-incubated with Kwar23. The settings on record: Fc fusion.

Chain of Recombinant hSIRPg-His (Sino Biologicals, reference 11828-H08H) (human) (Q9P1W8 29-360): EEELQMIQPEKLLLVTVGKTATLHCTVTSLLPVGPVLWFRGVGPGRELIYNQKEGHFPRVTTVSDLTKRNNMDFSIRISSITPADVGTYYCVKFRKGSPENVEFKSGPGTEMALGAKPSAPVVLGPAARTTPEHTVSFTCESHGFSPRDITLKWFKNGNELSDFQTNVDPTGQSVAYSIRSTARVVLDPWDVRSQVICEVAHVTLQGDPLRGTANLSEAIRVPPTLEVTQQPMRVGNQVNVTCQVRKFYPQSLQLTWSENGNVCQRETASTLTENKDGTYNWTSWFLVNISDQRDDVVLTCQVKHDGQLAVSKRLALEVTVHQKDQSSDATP
Chain of human CD47Fc (Sino Biologicals, reference 12283-H02H) (Q08722 19-139): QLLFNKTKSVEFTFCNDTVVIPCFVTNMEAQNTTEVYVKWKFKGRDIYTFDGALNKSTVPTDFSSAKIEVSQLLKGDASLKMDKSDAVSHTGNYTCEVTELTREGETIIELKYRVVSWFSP
Chain of hSIRPa-His recombinant protein (Sino Biologicals, reference 11612-H08H) (human) (P78324 31-370): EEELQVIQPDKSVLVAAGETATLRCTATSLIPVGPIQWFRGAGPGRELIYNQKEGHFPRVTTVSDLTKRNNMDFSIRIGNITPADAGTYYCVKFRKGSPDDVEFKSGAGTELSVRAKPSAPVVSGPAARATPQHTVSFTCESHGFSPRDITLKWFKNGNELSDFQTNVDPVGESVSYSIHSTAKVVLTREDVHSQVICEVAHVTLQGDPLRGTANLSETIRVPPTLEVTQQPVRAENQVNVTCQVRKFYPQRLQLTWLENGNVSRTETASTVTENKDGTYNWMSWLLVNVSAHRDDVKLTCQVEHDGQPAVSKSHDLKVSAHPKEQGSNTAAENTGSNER

As to Kwar23, the Kd (in general, a measure of binding affinity in units of concentration) in test [1] amounted to 0.367 nM.
Consider “human CD47Fc (Sino Biologicals, reference 12283-H02H) (from UniProt Q08722 19-139)”, for which the Kd in test [2] came to 597 nM; in test [3], 2570 nM; in test [4], 288000 nM.
